Measured values published in US20140274782A1, “AFFINITY REAGENTS AND METHODS FOR DETECTION, PURIFICATION, AND PROTEOMIC ANALYSIS OF METHYLATED PROTEINS” (The Board of Trustees of the Leland Stanford Junior …, priority 2013, published 2014).

Legend:
[1] = target: T1, G9a and GLP (Homo sapiens, UniProt Q96KQ7+Q9H9B1); test: Triple SILAC pull-down after UNC0638 treatment of 293T cells, DMSO/UNC0638 ratio of protein captured by 3×MBT; format: cell-based; conditions: for Relative to UNC0638 UNC Heavy: UNC0638 in heavy SILAC media; for Relative to UNC0638 UNC Light: UNC0638 in light SILAC media; for Relative to UNC0638 Average: average of UNC Light and UNC Heavy experiments;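 on all read-outs here: mass spectrometry (Q-Exactive) SILAC quantitation, DMSO/UNC0638 ratio computed after subtracting 3×MBTD355N mutant pull-down background, only proteins with at least twofold 3×MBT over mutant signal considered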
T1 construct: endogenous in cells; host or cells: HEK 293T
T1 sequence (Q96KQ7 2-1210 limits assumed): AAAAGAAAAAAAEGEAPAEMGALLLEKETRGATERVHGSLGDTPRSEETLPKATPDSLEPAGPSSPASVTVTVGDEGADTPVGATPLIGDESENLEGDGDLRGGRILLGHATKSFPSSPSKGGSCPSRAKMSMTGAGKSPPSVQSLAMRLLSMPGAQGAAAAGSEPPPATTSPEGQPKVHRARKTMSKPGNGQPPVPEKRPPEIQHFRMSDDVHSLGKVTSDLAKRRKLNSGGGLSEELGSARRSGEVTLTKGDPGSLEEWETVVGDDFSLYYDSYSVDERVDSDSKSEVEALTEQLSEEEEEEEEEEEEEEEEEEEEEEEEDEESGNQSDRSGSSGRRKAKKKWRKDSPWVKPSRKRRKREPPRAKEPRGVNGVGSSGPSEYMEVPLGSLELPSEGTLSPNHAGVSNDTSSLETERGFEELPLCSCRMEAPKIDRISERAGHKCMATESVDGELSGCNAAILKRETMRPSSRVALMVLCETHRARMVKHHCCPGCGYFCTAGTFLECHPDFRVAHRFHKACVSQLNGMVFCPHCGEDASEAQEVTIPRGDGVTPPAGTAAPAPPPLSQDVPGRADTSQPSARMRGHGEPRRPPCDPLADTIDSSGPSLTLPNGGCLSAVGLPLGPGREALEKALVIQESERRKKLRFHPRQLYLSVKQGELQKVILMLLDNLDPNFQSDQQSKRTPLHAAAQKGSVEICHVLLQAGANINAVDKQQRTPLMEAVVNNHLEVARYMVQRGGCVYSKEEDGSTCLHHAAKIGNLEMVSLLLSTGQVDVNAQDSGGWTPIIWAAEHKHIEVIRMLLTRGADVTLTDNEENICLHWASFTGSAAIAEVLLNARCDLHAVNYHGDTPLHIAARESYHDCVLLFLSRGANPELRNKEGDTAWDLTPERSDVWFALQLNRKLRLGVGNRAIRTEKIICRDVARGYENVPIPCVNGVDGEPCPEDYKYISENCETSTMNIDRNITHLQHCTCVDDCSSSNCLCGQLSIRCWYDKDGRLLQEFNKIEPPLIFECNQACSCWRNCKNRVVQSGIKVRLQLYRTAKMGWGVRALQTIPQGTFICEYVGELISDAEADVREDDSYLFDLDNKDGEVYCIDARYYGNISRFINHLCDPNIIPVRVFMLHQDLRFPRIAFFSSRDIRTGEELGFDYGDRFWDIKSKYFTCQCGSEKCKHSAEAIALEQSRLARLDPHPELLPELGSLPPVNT
T1 sequence (Q9H9B1 2-1298 limits assumed): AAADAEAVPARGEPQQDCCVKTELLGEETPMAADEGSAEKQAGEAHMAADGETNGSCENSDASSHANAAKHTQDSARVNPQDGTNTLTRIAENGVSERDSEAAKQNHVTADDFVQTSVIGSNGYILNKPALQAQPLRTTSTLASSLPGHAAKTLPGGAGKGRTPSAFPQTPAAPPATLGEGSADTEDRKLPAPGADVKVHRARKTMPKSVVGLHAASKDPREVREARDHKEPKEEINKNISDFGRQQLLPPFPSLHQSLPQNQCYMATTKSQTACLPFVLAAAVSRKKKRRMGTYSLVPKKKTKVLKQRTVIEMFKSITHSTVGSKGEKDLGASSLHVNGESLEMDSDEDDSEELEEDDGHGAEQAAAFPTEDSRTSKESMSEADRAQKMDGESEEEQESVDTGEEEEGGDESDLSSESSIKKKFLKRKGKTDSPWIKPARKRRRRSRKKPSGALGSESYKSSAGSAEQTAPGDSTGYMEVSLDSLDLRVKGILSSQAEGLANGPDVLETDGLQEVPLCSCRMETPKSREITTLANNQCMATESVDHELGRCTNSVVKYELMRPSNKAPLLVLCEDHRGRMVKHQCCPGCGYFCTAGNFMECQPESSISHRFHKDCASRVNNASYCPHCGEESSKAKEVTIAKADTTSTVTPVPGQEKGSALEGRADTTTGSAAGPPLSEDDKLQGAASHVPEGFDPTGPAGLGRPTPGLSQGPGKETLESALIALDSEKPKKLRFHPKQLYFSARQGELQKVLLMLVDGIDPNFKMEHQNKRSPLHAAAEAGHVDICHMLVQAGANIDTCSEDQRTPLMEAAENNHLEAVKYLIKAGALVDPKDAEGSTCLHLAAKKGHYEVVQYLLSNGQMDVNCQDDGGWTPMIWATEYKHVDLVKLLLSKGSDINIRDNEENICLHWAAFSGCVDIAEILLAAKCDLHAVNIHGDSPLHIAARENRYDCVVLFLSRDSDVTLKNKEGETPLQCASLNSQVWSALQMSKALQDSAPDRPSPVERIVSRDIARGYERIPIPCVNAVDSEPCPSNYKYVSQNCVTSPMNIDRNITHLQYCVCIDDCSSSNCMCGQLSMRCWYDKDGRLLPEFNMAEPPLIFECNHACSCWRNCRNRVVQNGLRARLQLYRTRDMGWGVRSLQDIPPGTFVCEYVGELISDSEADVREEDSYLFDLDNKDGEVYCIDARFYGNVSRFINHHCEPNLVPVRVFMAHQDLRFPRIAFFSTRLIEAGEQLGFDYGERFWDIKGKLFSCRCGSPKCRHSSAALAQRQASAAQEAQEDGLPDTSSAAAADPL

[2] = tested on: 3×MBT domain of L3MBTL1; test: Triple SILAC pull-down, 3xMBT/3xMBTD355N ratio (cytoplasmic, nuclear and chromatin fractions of 293T cells); format: binding, human; conditions: for 3xMBT/D355N UNC Heavy: experiment with UNC0638 in heavy SILAC media; for 3xMBT/D355N UNC Light: experiment with UNC0638 in light SILAC media;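 on all read-outs here: proteins quantified with MaxQuant, requiring at least two unique peptides and quantification in both label directions, normalized to the mean of proteins from a digested loading control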
[3] = SILAC ratio DMSO/UNC0638 of protein pulled down with 3xMBT
[4] = SILAC ratio, pull-down 3xMBT vs 3xMBTD355N
[5] = SILAC ratio DMSO relative to UNC0638, pull-down with 3xMBT, all values in log base 2
[6] = SILAC ratio 3xMBT vs 3xMBTD355N pull-down, 293T cells, all values in log base 2

Substance | Relative to UNC0638 UNC Heavy [1, 3] [log base 2] | Relative to UNC0638 UNC Light [1, 3] [log base 2] | Relative to UNC0638 Average [1] [log base 2] | 3xMBT/D355N UNC Heavy [2, 4] [log base 2] | 3xMBT/D355N UNC Light [2, 4] [log base 2] | Relative to UNC0638 UNC Heavy [1, 5] [log base 2] | Relative to UNC0638 UNC Light [1, 5] [log base 2] | Relative to UNC0638 Average ([1]; all values in log base 2) [log base 2] | 3xMBT/D355N UNC Heavy [2, 6] [log base 2] | 3xMBT/D355N UNC Light [2, 6] [log base 2] | Candidate G9a/GLP target ([1]; reduced association with 3xMBT after UNC0638 treatment)
LANCL1 | 0.14 | 0.23 | 0.18 | 1.33 | 1.63 | – | – | – | – | – | –
MAP4K5 | – | – | – | – | – | 0.63 | −0.72 | −0.04 | 1.69 | 0.87 | –
MCM6 | 0.10 | 0.26 | 0.18 | 2.48 | 2.53 | – | – | – | – | – | –
MCTS1 | 0.04 | 0.20 | 0.12 | 2.76 | 2.56 | – | – | – | – | – | –
MDC1 | 0.36 | 0.11 | 0.24 | 2.31 | 2.83 | – | – | – | – | – | –
METTL3 | – | – | – | – | – | 0.04 | −1.45 | −0.70 | 3.18 | −0.51 | –
MK167 | 0.61 | −0.25 | 0.18 | 2.59 | 2.26 | – | – | – | – | – | –
MLLT4 | – | – | – | – | – | 0.16 | 0.04 | 0.10 | 3.31 | 2.39 | –
MPG | 0.52 | −0.04 | 0.24 | 1.39 | 1.87 | – | – | – | – | – | –
NBN | – | – | – | – | – | −0.14 | −0.46 | −0.30 | 1.68 | 1.52 | –
NONO | 0.17 | 0.16 | 0.17 | 3.18 | 3.75 | – | – | – | – | – | –
NPM1 | 0.24 | 0.11 | 0.17 | 1.24 | 1.27 | – | – | – | – | – | –
NSUN2 | 4.51 | 0.18 | 2.35 | 0.25 | 2.00 | – | – | – | – | – | √✓
NUDT21 | 0.20 | 0.04 | 0.12 | 3.65 | 3.15 | – | – | – | – | – | –
NUMA1 | 0.90 | −0.32 | 0.29 | 0.83 | 3.33 | – | – | – | – | – | –
PABPC1 | 0.04 | 0.26 | 0.15 | 2.91 | 3.44 | – | – | – | – | – | –
PCBP1 | 0.11 | 0.19 | 0.15 | 2.16 | 2.49 | – | – | – | – | – | –
PPP1CA | – | – | – | – | – | 1.15 | −1.83 | −0.34 | 1.51 | 0.12 | –
